Data taken from article PMC10173203 (Science translational medicine, 2021).

Target: HA of A/Michigan/45/2015 H1N1 virus (Influenza A virus A/Michigan/45/2015 …, UniProt A0A1J0CXU0, strain)
Assay: ELISA

B1: 047–09 4B06 mAb (human IgG1) (antibody, V domains shown)
VH: EVQLLESGGGLVQPGGSLRLSCAASGFIFGHFAMTWVRQAPGKGLEWLSAISGGGLNTYYAESVKGRFTMSRDNSKNTLYLQMGSLRAEDAAVYYCARFDSSGYNYVRGMVVWGQGTAV
VL: DIQMTQSPSSLSVSIGDRITITCQASQDIKNYLGWYQHKPGKAPKLLIYHVSNLEAGVPSRFSGSGSGTDFTFTISSLQPEDIGTYYCHQCYNLPYTFGQGTKVEIK
binding result: binds
